# Experimental data: the supplement of paper PMC10126150
# ± gives the standard deviation of the averaged measurements.
# Test system: ATP
# Test: switch fluorescence ratio, 500 uM ATP over buffer (Cy3 cluster intensity, sum of 5 cycles each) (fold (ratio)); higher = stronger signal-on switching upon ATP binding; sequences stand for … in TCGTCGGCAGCGTCAGATGTGTATAAGAGACAGTTTTTTTTTTTTTTTTTTTTTTTTT…TC
# Conditions: aptamer strand: ATP DNA aptamer (quencher-CACCTGGGGGAGTATTGCGGAGGAAGG + anchor), 100 nM annealed; ATP concentration: 500 uM
# Outline: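 Cy3-labelled switching-strand clusters on a modified Illumina MiSeq flow-cell were annealed to 100 nM quencher-labelled ATP aptamer, imaged in selection buffer, then imaged after 15 min with 500 uM ATP at 22 °C. Five buffer/ATP cycles ran, with NaOH stripping and re-annealing between them. The fluorescence ratio is summed target-cycle over summed buffer-cycle Cy3 intensity per cluster, averaged per switch-domain sequence. Clusters outside 100-1000 RFU were excluded.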
# 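Further: ATP exposure 15 min at 22 °C before imaging.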
row,Sequence,switch fluorescence ratio
1,TATATTGGAT,0.985 ± 0.025
2,TATATTGGGC,0.968 ± 0.049
3,TATATTTGGG,0.998 ± 0.034
4,TATATTTGGT,0.996 ± 0.039
5,TATATTTTTA,0.9819 ± 0.0079
6,TATCAAAGGC,1.014 ± 0.0082
7,TATCACCATA,1.04 ± 0.079
8,TATCACCGGC,1.09 ± 0.031
9,TATCACGGTA,1.176 ± 0.011
10,TATCAGAGGG,1.02 ± 0.023
11,TATCAGGGCT,0.999 ± 0.057
12,TATCAGGGGA,1 ± 0.075
13,TATCAGGGGT,1.08 ± 0.073
14,TATCATAAGT,1.016 ± 0.0077
15,TATCATCTTT,1.01 ± 0.054
16,TATCATTAGA,1.01 ± 0.014
17,TATCATTCGG,1.01 ± 0.043
18,TATCCTATTA,1.003 ± 0.0036
19,TATCCTGGAC,1.05 ± 0.045
20,TATCGAAGTT,1.013 ± 0.0018
21,TATCGACAAT,1.37 ± 0.47
22,TATCGAGTGG,0.979 ± 0.058

row,Sequence,switch fluorescence ratio
1,TATCGCGGTG,1.005 ± 0.005
2,TATCGCTCAT,0.9765 ± 0.0073
3,TATCGGATTC,1.02 ± 0.02
4,TATCGGGTGT,1.11 ± 0.092
5,TATCGGTTCG,0.9992 ± 0.0076
6,TATCGTAGTG,0.98 ± 0.038
7,TATCGTCGGA,0.9823 ± 0.0035
8,TATCGTCTGG,0.981 ± 0.015
9,TATCGTTCTC,0.989 ± 0.011
10,TATCGTTGGA,1.03 ± 0.018
11,TATCTCTTTT,1.01 ± 0.041
12,TATCTGGGCC,1.03 ± 0.011
13,TATCTGTGCT,0.994 ± 0.019
14,TATCTTACCA,0.988 ± 0.032
15,TATCTTGGGC,0.996 ± 0.083
16,TATGAAAGGA,1.011 ± 0.0047
17,TATGAAGAGT,1.01 ± 0.017
18,TATGAATTGT,1.014 ± 0.01
19,TATGACAGGA,0.995 ± 0.011
20,TATGAGAGAG,1.03 ± 0.02
21,TATGAGATCG,1.03 ± 0.069
22,TATGAGGATG,1.01 ± 0.031

row,Sequence,switch fluorescence ratio
1,TATGAGGGGA,1.02 ± 0.032
2,TATGAGTGAC,1.02 ± 0.016
3,TATGAGTGGG,0.976 ± 0.018
4,TATGATATGC,1.032 ± 0.0011
5,TATGATGCTC,0.998 ± 0.043
6,TATGATTGGC,0.972 ± 0.061
7,TATGCAACTT,0.993 ± 0.015
8,TATGCAGTA,1.3 ± 0.038
9,TATGCCCAGC,1 ± 0.029
10,TATGCCTTTT,1.008 ± 0.0042
11,TATGCGGGCG,0.939 ± 0.072
12,TATGCTAACT,1 ± 0.051
13,TATGCTTGA,0.986 ± 0.036
14,TATGCTTGGT,1.015 ± 0.003
15,TATGGAAGAG,0.977 ± 0.054
16,TATGGAAGCC,0.982 ± 0.034
17,TATGGAATGC,1.35 ± 0.076
18,TATGGACTAG,1.01 ± 0.025
19,TATGGAGAAC,1.01 ± 0.035
20,TATGGAGGGG,0.991 ± 0.032
21,TATGGCAACC,1.03 ± 0.061
22,TATGGCAAGG,1.03 ± 0.051

row,Sequence,switch fluorescence ratio
1,TATGGCCAGC,0.994 ± 0.047
2,TATGGCGGGG,1.02 ± 0.03
3,TATGGGGGGG,0.994 ± 0.038
4,TATGGGGGTT,0.987 ± 0.022
5,TATGGGTCTC,0.973 ± 0.049
6,TATGGGTGCC,0.9771 ± 0.0042
7,TATGGGTTCT,1 ± 0.031
8,TATGGTAGGC,0.9857 ± 0.0042
9,TATGGTCGC,1.03 ± 0.026
10,TATGGTGC,1.06 ± 0.015
11,TATGTAAACA,1 ± 0.025
12,TATGTATTTT,1.02 ± 0.055
13,TATGTCAGAG,1.01 ± 0.039
14,TATGTCGGCC,0.975 ± 0.069
15,TATGTGAACA,0.991 ± 0.025
16,TATGTGACGA,1 ± 0.026
17,TATGTGCTTG,0.991 ± 0.021
18,TATGTGGAGT,0.9924 ± 0.0089
19,TATGTGGCGG,0.974 ± 0.022
